Measurements as given in IntAct's records for PubMed 24417819.

B1: Tetratricopeptide repeat protein 7A (Homo sapiens), Q9ULT0 (parent)
chain: MAAKGAHGSYLKVESELERCRAEGHWDRMPELVRQLQTLSMPGGGGNRRGSPSAAFTFPDTDDFGKLLLAEALLEQCLKENHAKIKDSMPLLEKNEPKMSEAKNYLSSILNHGRLSPQYMCEAMLILGKLHYVEGSYRDAISMYARAGIDDMSMENKPLYQMRLLSEAFVIKGLSLERLPNSIASRFRLTEREEEVITCFERASWIAQVFLQELEKTTNNSTSRHLKGCHPLDYELTYFLEAALQSAYVKNLKKGNIVKGMRELREVLRTVETKATQNFKVMAAKHLAGVLLHSLSEECYWSPLSHPLPEFMGKEESSFATQALRKPHLYEGDNLYCPKDNIEEALLLLLISESMATRDVVLSRVPEQEEDRTVSLQNAAAIYDLLSITLGRRGQYVMLSECLERAMKFAFGEFHLWYQVALSMVACGKSAYAVSLLRECVKLRPSDPTVPLMAAKVCIGSLRWLEEAEHFAMMVISLGEEAGEFLPKGYLALGLTYSLQATDATLKSKQDELHRKALQTLERAQQLAPSDPQVILYVSLQLALVRQISSAMEQLQEALKVRKDDAHALHLLALLFSAQKHHQHALDVVNMAITEHPENFNLMFTKVKLEQVLKGPEEALVTCRQVLRLWQTLYSFSQLGGLEKDGSFGEGLTMKKQSGMHLTLPDAHDADSGSRRASSIAASRLEEAMSELTMPSSVLKQGPMQLWTTLEQIWLQAAELFMEQQHLKEAGFCIQEAAGLFPTSHSVLYMRGRLAEVKGNLEEAKQLYKEALTVNPDGVRIMHSLGLMLSRLGHKSLAQKVLRDAVERQSTCHEAWQGLGEVLQAQGQNEAAVDCFLTALELEASSPVLPFSIIPREL

Variants of: B1
Conditions: with PI4K2A

Variant | effect of a mutation on the interaction
E71K | decreasing interaction
A832T | decreasing interaction
